According to patent US20110318339A1:
Blank lines part the entries; values can stand above or below the substance they belong to.

Key:
[1] = target: rHuman CD44/Fc Chimera, CF (Cat# 3660-CD) (human) (UniProt P16070); assay: Multispot ECL; Fab 70 nM
[2] = target: rHuman ErbB2/Fc Chimera, CF (Cat# 1129-ER) (human) (UniProt P04626); assay: Multispot ECL; Fab 70 nM
[3] = target: rHuman IGF-1 sR, (IGF-1 sR), CF (Cat# 391-GR) (human) (UniProt P08069); assay: Multispot ECL; Fab 70 nM
[4] = target: rHuman Notch-1/Fc Chimera, CF (Cat# 3647-TK) (human) (UniProt P46531); assay: Multispot ECL; Fab 70 nM
[5] = target: rHuman P-Cadherin/Fc Chimera, CF (Cat# 861-PC) (human) (UniProt P22223); assay: Multispot ECL; Fab 70 nM
[6] = target: rHuman CD44/Fc Chimera, CF (Cat# 3660-CD) (human) (UniProt P16070); assay: Multispot ECL; Fab 280 nM
[7] = target: rHuman ErbB2/Fc Chimera, CF (Cat# 1129-ER) (human) (UniProt P04626); assay: Multispot ECL; Fab 280 nM
[8] = target: rHuman IGF-1 sR, (IGF-1 sR), CF (Cat# 391-GR) (human) (UniProt P08069); assay: Multispot ECL; Fab 280 nM
[9] = target: rHuman Notch-1/Fc Chimera, CF (Cat# 3647-TK) (human) (UniProt P46531); assay: Multispot ECL; Fab 280 nM
[10] = target: rHuman P-Cadherin/Fc Chimera, CF (Cat# 861-PC) (human) (UniProt P22223); assay: Multispot ECL; Fab 280 nM
[11] = target: rHuman CD44/Fc Chimera, CF (Cat# 3660-CD) (human) (UniProt P16070); assay: Multispot ECL; Fab 17.5 nM
[12] = target: rHuman ErbB2/Fc Chimera, CF (Cat# 1129-ER) (human) (UniProt P04626); assay: Multispot ECL; Fab 17.5 nM
[13] = target: rHuman IGF-1 sR, (IGF-1 sR), CF (Cat# 391-GR) (human) (UniProt P08069); assay: Multispot ECL; Fab 17.5 nM
[14] = target: rHuman Notch-1/Fc Chimera, CF (Cat# 3647-TK) (human) (UniProt P46531); assay: Multispot ECL; Fab 17.5 nM
[15] = target: rHuman P-Cadherin/Fc Chimera, CF (Cat# 861-PC) (human) (UniProt P22223); assay: Multispot ECL; Fab 17.5 nM
[16] = target: rHuman CD44/Fc Chimera, CF (Cat# 3660-CD) (human) (UniProt P16070); assay: Multispot ECL; Fab 4.375 nM
[17] = target: rHuman ErbB2/Fc Chimera, CF (Cat# 1129-ER) (human) (UniProt P04626); assay: Multispot ECL; Fab 4.375 nM
[18] = target: rHuman IGF-1 sR, (IGF-1 sR), CF (Cat# 391-GR) (human) (UniProt P08069); assay: Multispot ECL; Fab 4.375 nM
[19] = target: rHuman Notch-1/Fc Chimera, CF (Cat# 3647-TK) (human) (UniProt P46531); assay: Multispot ECL; Fab 4.375 nM
[20] = target: rHuman P-Cadherin/Fc Chimera, CF (Cat# 861-PC) (human) (UniProt P22223); assay: Multispot ECL; Fab 4.375 nM
[21] = target: rHuman ErbB2/Fc Chimera, CF (Cat# 1129-ER) (human) (UniProt P04626); assay: Multispot ECL; Fab […]
[22] = target: rHuman HGF R/c-MET/Fc Chimera, CF (Cat# 358-MT/CF) (human) (UniProt P08581); assay: Multispot ECL; Fab […]
[23] = target: rHuman IGF-1 sR, (IGF-1 sR), CF (Cat# 391-GR) (human) (UniProt P08069); assay: Multispot ECL; Fab […]
[24] = target: rHuman ErbB2/Fc Chimera, CF (Cat# 1129-ER) (human) (UniProt P04626); assay: Multispot ECL; Fab 0.096 µM
[25] = target: rHuman HGF R/c-MET/Fc Chimera, CF (Cat# 358-MT/CF) (human) (UniProt P08581); assay: Multispot ECL; Fab 0.096 µM
[26] = target: rHuman IGF-1 sR, (IGF-1 sR), CF (Cat# 391-GR) (human) (UniProt P08069); assay: Multispot ECL; Fab 0.096 µM
[27] = target: rHuman ErbB2/Fc Chimera, CF (Cat# 1129-ER) (human) (UniProt P04626); assay: Multispot ECL; Fab 0.0192 µM
[28] = target: rHuman HGF R/c-MET/Fc Chimera, CF (Cat# 358-MT/CF) (human) (UniProt P08581); assay: Multispot ECL; Fab 0.0192 µM
[29] = target: rHuman IGF-1 sR, (IGF-1 sR), CF (Cat# 391-GR) (human) (UniProt P08069); assay: Multispot ECL; Fab 0.0192 µM
[30] = target: rHuman ErbB2/Fc Chimera, CF (Cat# 1129-ER) (human) (UniProt P04626); assay: Multispot ECL; Fab 1.19 µM
[31] = target: rHuman HGF R/c-MET/Fc Chimera, CF (Cat# 358-MT/CF) (human) (UniProt P08581); assay: Multispot ECL; Fab 1.19 µM
[32] = target: rHuman IGF-1 sR, (IGF-1 sR), CF (Cat# 391-GR) (human) (UniProt P08069); assay: Multispot ECL; Fab 1.19 µM
[33] = target: rHuman ErbB2/Fc Chimera, CF (Cat# 1129-ER) (human) (UniProt P04626); assay: Multispot ECL; Fab 0.2975 µM
[34] = target: rHuman HGF R/c-MET/Fc Chimera, CF (Cat# 358-MT/CF) (human) (UniProt P08581); assay: Multispot ECL; Fab 0.2975 µM
[35] = target: rHuman IGF-1 sR, (IGF-1 sR), CF (Cat# 391-GR) (human) (UniProt P08069); assay: Multispot ECL; Fab 0.2975 µM
[36] = target: rHuman ErbB2/Fc Chimera, CF (Cat# 1129-ER) (human) (UniProt P04626); assay: Multispot ECL; Fab 0.01859 µM
[37] = target: rHuman HGF R/c-MET/Fc Chimera, CF (Cat# 358-MT/CF) (human) (UniProt P08581); assay: Multispot ECL; Fab 0.01859 µM
[38] = target: rHuman IGF-1 sR, (IGF-1 sR), CF (Cat# 391-GR) (human) (UniProt P08069); assay: Multispot ECL; Fab 0.01859 µM
[39] = target: rHuman ErbB2/Fc Chimera, CF (Cat# 1129-ER) (human) (UniProt P04626); assay: Multispot ECL; Fab 0.07438 µM
[40] = target: rHuman HGF R/c-MET/Fc Chimera, CF (Cat# 358-MT/CF) (human) (UniProt P08581); assay: Multispot ECL; Fab 0.07438 µM
[41] = target: rHuman IGF-1 sR, (IGF-1 sR), CF (Cat# 391-GR) (human) (UniProt P08069); assay: Multispot ECL; Fab 0.07438 µM
[42] = target: rHuman EGF R/Fc Chimera, CF (Cat# 344-ER) (human) (UniProt P00533); assay: Multispot ECL; Fab […]
[43] = target: rHuman Erythropoietin R/Fc Chimera, CF (Cat# 963-ER) (human) (UniProt P19235); assay: Multispot ECL; Fab […]
Chain of rHuman Erythropoietin R/Fc Chimera, CF (Cat# 963-ER) (human) (P19235 25-250, change not shown): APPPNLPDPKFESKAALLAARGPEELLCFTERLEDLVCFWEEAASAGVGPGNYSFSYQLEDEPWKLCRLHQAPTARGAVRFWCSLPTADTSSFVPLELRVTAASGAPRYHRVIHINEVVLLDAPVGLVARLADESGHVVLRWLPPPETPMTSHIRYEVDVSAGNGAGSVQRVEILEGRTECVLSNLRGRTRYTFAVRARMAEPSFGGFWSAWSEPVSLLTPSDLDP

[44] = target: rHuman Notch-1/Fc Chimera, CF (Cat# 3647-TK) (human) (UniProt P46531); assay: Multispot ECL; Fab […]
[45] = target: rHuman P-Cadherin/Fc Chimera, CF (Cat# 861-PC) (human) (UniProt P22223); assay: Multispot ECL; Fab […]
[46] = target: rHuman EGF R/Fc Chimera, CF (Cat# 344-ER) (human) (UniProt P00533); assay: Multispot ECL; Fab 0.51 µM
[47] = target: rHuman Erythropoietin R/Fc Chimera, CF (Cat# 963-ER) (human) (UniProt P19235); assay: Multispot ECL; Fab 0.51 µM
[48] = target: rHuman IGF-1 sR, (IGF-1 sR), CF (Cat# 391-GR) (human) (UniProt P08069); assay: Multispot ECL; Fab 0.51 µM
[49] = target: rHuman Notch-1/Fc Chimera, CF (Cat# 3647-TK) (human) (UniProt P46531); assay: Multispot ECL; Fab 0.51 µM
[50] = target: rHuman P-Cadherin/Fc Chimera, CF (Cat# 861-PC) (human) (UniProt P22223); assay: Multispot ECL; Fab 0.51 µM
[51] = target: rHuman EGF R/Fc Chimera, CF (Cat# 344-ER) (human) (UniProt P00533); assay: Multispot ECL; Fab 0.1275 µM
[52] = target: rHuman Erythropoietin R/Fc Chimera, CF (Cat# 963-ER) (human) (UniProt P19235); assay: Multispot ECL; Fab 0.1275 µM
[53] = target: rHuman IGF-1 sR, (IGF-1 sR), CF (Cat# 391-GR) (human) (UniProt P08069); assay: Multispot ECL; Fab 0.1275 µM
[54] = target: rHuman Notch-1/Fc Chimera, CF (Cat# 3647-TK) (human) (UniProt P46531); assay: Multispot ECL; Fab 0.1275 µM
[55] = target: rHuman P-Cadherin/Fc Chimera, CF (Cat# 861-PC) (human) (UniProt P22223); assay: Multispot ECL; Fab 0.1275 µM
[56] = target: rHuman EGF R/Fc Chimera, CF (Cat# 344-ER) (human) (UniProt P00533); assay: Multispot ECL; Fab 0.03188 µM
[57] = target: rHuman Erythropoietin R/Fc Chimera, CF (Cat# 963-ER) (human) (UniProt P19235); assay: Multispot ECL; Fab 0.03188 µM
[58] = target: rHuman IGF-1 sR, (IGF-1 sR), CF (Cat# 391-GR) (human) (UniProt P08069); assay: Multispot ECL; Fab 0.03188 µM
[59] = target: rHuman Notch-1/Fc Chimera, CF (Cat# 3647-TK) (human) (UniProt P46531); assay: Multispot ECL; Fab 0.03188 µM
[60] = target: rHuman P-Cadherin/Fc Chimera, CF (Cat# 861-PC) (human) (UniProt P22223); assay: Multispot ECL; Fab 0.03188 µM

ECL signal [1]: 1370
ECL signal [2]: 1360
ECL signal [3]: 1320
ECL signal [4]: 1490
ECL signal [5]: 1820
ECL signal [6]: 4070
ECL signal [7]: 3950
ECL signal [8]: 3530
ECL signal [9]: 4380
ECL signal [10]: 5400
ECL signal [11]: 664
ECL signal [12]: 541
ECL signal [13]: 626
ECL signal [14]: 680
ECL signal [15]: 949
ECL signal [16]: 424
ECL signal [17]: 384
ECL signal [18]: 369
ECL signal [19]: 480
ECL signal [20]: 469
Substance: Fab VH1-46_IGHD2-15*01_IGHJ2*01 & L12_IGKJ1*01

ECL signal [21]: 11300
ECL signal [22]: 8000
ECL signal [23]: 8930
ECL signal [24]: 3360
ECL signal [25]: 2330
ECL signal [26]: 2450
ECL signal [27]: 2310
ECL signal [28]: 1580
ECL signal [29]: 1830
Substance: Fab VH1-46_IGHD6-13*01_IGHJ4*01 & A27_IGKJ1*01

ECL signal [30]: 38400
ECL signal [31]: 45500
ECL signal [32]: 35200
ECL signal [33]: 15100
ECL signal [34]: 17400
ECL signal [35]: 17400
ECL signal [36]: 5530
ECL signal [37]: 4570
ECL signal [38]: 3780
ECL signal [39]: 7550
ECL signal [40]: 6610
ECL signal [41]: 5800
Substance: Fab VH1-46_IGHD6-13*01_IGHJ4*01 & L2_IGKJ1*01

ECL signal [42]: 530
ECL signal [43]: 566
ECL signal [23]: 564
ECL signal [44]: 654
ECL signal [45]: 502
ECL signal [46]: 2360
ECL signal [47]: 2620
ECL signal [48]: 2240
ECL signal [49]: 2770
ECL signal [50]: 2390
ECL signal [51]: 1060
ECL signal [52]: 1070
ECL signal [53]: 1040
ECL signal [54]: 1500
ECL signal [55]: 957
ECL signal [56]: 694
ECL signal [57]: 789
ECL signal [58]: 765
ECL signal [59]: 849
ECL signal [60]: 775
Substance: Fab VH4-34_IGHD7-27*01_IGHJ4*01 & L5_IGKJ1*01
